Values belong to the binder of their own block, whether it stands above or below them.
Biological target: T1, GST–ACS7 (Arabidopsis thaliana, UniProt Q9STR4 1-447)
T1 construct: ACS7, 1-aminocyclopropane-1-carboxylate synthase 7, Arabidopsis thaliana; Vector pDEST15; also called recombinant GST–ACS7; N-tagged GST–ACS7; source: E. coli BL21-CodonPlus (DE3)-RIL, purified (Glutathione-Sepharose 4B); not shown: GST, N-terminal, kept
T1 sequence (looked up): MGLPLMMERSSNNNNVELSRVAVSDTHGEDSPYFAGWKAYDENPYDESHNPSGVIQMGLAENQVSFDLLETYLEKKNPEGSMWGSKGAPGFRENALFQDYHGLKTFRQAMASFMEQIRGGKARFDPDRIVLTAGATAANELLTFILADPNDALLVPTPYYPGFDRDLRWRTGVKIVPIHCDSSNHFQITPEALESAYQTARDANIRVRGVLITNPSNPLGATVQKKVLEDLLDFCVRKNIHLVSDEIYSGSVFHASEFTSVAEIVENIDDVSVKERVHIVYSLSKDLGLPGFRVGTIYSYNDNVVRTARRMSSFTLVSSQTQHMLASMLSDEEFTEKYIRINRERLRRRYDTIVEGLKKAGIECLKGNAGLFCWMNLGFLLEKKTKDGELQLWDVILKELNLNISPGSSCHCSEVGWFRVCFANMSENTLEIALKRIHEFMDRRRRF
Experiment: pull-down; GST–ACS7 pre-coupled to Glutathione-Sepharose 4B, preincubated with 1 mg/mL BSA; His-tagged ABI1 or ABI2 added in EBC buffer (100 mM NaCl, 0.5% Nonidet P-40, 100 mM NaF, 200 μM sodium orthovanadate, 50 mM Tris-HCl pH 8.0), 1 h, room temperature; washes with NENT buffer at 100/200/300 mM NaCl; immunoblot with anti-GST and anti-His
Conditions: both partners purified

binding result: binds
B1: His–ABI1 (enzyme, Arabidopsis thaliana, UniProt P49597 1-434, looked up)
chain: MEEVSPAIAGPFRPFSETQMDFTGIRLGKGYCNNQYSNQDSENGDLMVSLPETSSCSVSGSHGSESRKVLISRINSPNLNMKESAAADIVVVDISAGDEINGSDITSEKKMISRTESRSLFEFKSVPLYGFTSICGRRPEMEDAVSTIPRFLQSSSGSMLDGRFDPQSAAHFFGVYDGHGGSQVANYCRERMHLALAEEIAKEKPMLCDGDTWLEKWKKALFNSFLRVDSEIESVAPETVGSTSVVAVVFPSHIFVANCGDSRAVLCRGKTALPLSVDHKPDREDEAARIEAAGGKVIQWNGARVFGVLAMSRSIGDRYLKPSIIPDPEVTAVKRVKEDDCLILASDGVWDVMTDEEACEMARKRILLWHKKNAVAGDASLLADERRKEGKDPAAMSAAEYLSKLAIQRGSKDNISVVVVDLKPRRKLKSKPLN
notes: ABI1, group A protein phosphatase type 2C, Arabidopsis thaliana; Vector pDEST17; also called His-tagged ABI1; source: E. coli BL21-CodonPlus (DE3)-RIL, purified (Ni-Sepharose 6 Fast Flow)

binding result: binds
B2: His–ABI2 (enzyme, Arabidopsis thaliana, UniProt O04719 1-423, looked up)
chain: MDEVSPAVAVPFRPFTDPHAGLRGYCNGESRVTLPESSCSGDGAMKDSSFEINTRQDSLTSSSSAMAGVDISAGDEINGSDEFDPRSMNQSEKKVLSRTESRSLFEFKCVPLYGVTSICGRRPEMEDSVSTIPRFLQVSSSSLLDGRVTNGFNPHLSAHFFGVYDGHGGSQVANYCRERMHLALTEEIVKEKPEFCDGDTWQEKWKKALFNSFMRVDSEIETVAHAPETVGSTSVVAVVFPTHIFVANCGDSRAVLCRGKTPLALSVDHKPDRDDEAARIEAAGGKVIRWNGARVFGVLAMSRSIGDRYLKPSVIPDPEVTSVRRVKEDDCLILASDGLWDVMTNEEVCDLARKRILLWHKKNAMAGEALLPAEKRGEGKDPAAMSAAEYLSKMALQKGSKDNISVVVVDLKGIRKFKSKSLN
notes: ABI2, group A protein phosphatase type 2C, Arabidopsis thaliana; Vector pDEST17; also called His-tagged ABI2; source: E. coli BL21-CodonPlus (DE3)-RIL, purified (Ni-Sepharose 6 Fast Flow)

— article PMC7227406, “Protein Phosphatases Type 2C Group A Interact with and Regulate the Stability of ACC Synthase 7 in Arabidopsis” (Cells, 2020)
